The data set concerns the molecule itself. The data set is described as follows: crystal structure; hGSTA1 (13 mg/ml) mixed with GSH and PEITC, 6 h at 4°C; sitting drop, 20% PEG 3350, 0.2 M sodium acetate; 1.93 Å, space group C2.

B1: human alpha class glutathione S-transferase of subunit type 1 (hGSTA1), Cys112-PEITC adduct, with GS-PEITC bound (enzyme)
chain: AEKPKLHYFNARGRMESTRWLLAAAGVEFEEKFIKSAEDLDKLRNDGYLMFQQVPMVEIDGMKLVQTRAILNYIASKYNLYGKDIKERALIDMYIEGIADLGEMILLLPVCPPEEKDAKLALIKEKIKNRYFPAFEKVLKSHGQDYLVGNKLSRADIHLVELLYYVEELDSSLISSFPLLKALKTRISNLPTVKKFLQPGSPRKPPMDEKSLEEARKIFRF
modifications: Cys112 side chain covalently modified by PEITC (phenethyl isothiocyanate)
notes: glutathione S-transferase alpha 1 (hGSTA1), human; In the crystal the active site holds the small-molecule product GS-PEITC; also called hGSTA1-PEITC; hGSTA1:GS-PEITC; source: prepared as described [11,12]
B1: the binding result is “binds”.

The values above are taken from PMC5042466, “Irreversible Inhibition of Glutathione S-Transferase by Phenethyl Isothiocyanate (PEITC), a Dietary Cancer Chemopreventive Phytochemical” (PLoS ONE, 2016).
